Results taken from patent US20110301073.

What was measured:
[1] = tested on: TALE test backbone, repeat 5 RVD AA (synthetic (Xanthomonas TALE)); conditions: ELISA
[2] = tested on: TALE test backbone, repeat 5 RVD AD (synthetic (Xanthomonas TALE)); conditions: ELISA
[3] = tested on: TALE test backbone, repeat 5 RVD AE (synthetic (Xanthomonas TALE)); conditions: ELISA
[4] = tested on: TALE test backbone, repeat 5 RVD DK (synthetic (Xanthomonas TALE)); conditions: ELISA
[5] = tested on: TALE test backbone, repeat 5 RVD HG (synthetic (Xanthomonas TALE)); conditions: ELISA
[6] = tested on: TALE test backbone, repeat 5 RVD IA (synthetic (Xanthomonas TALE)); conditions: ELISA
[7] = tested on: TALE test backbone, repeat 5 RVD KD (Xanthomonas sp. (engineered)); conditions: RVD KD
[8] = tested on: TALE test backbone, repeat 5 RVD KI (synthetic (Xanthomonas TALE)); conditions: ELISA
[9] = tested on: TALE test backbone, repeat 5 RVD KT (synthetic (Xanthomonas TALE)); conditions: ELISA
[10] = tested on: TALE test backbone, repeat 5 RVD LA (synthetic (Xanthomonas TALE)); conditions: ELISA
[11] = tested on: TALE test backbone, repeat 5 RVD NI (Xanthomonas sp. (engineered)); conditions: RVD NI
[12] = tested on: TALE test backbone, repeat 5 RVD NS (synthetic (Xanthomonas TALE)); conditions: ELISA
[13] = tested on: TALE test backbone, repeat 5 RVD RG (synthetic (Xanthomonas TALE)); conditions: ELISA
[14] = tested on: TALE test backbone, repeat 5 RVD SG (synthetic (Xanthomonas TALE)); conditions: ELISA
[15] = tested on: TALE test backbone, repeat 5 RVD SN (synthetic (Xanthomonas TALE)); conditions: ELISA
[16] = tested on: TALE test backbone, repeat 5 RVD TP (synthetic (Xanthomonas TALE)); conditions: ELISA
[17] = tested on: TALE test backbone, repeat 5 RVD VG (synthetic (Xanthomonas TALE)); conditions: ELISA

Sequence: TTGACCATCCT (double strand) [CCA target]
- binding signal (normalized ELISA) [1]: 0.35
- binding signal (normalized ELISA) [2]: 0.4
- binding signal (normalized ELISA) [3]: 0
- binding signal (normalized ELISA) [4]: 0
- binding signal (normalized ELISA) [5]: 0.11
- binding signal (normalized ELISA) [6]: 0.24
- binding signal (normalized ELISA) [7]: 0.61
- binding signal (normalized ELISA) [8]: 0.11
- binding signal (normalized ELISA) [9]: 0.81
- binding signal (normalized ELISA) [10]: 0.02
- binding signal (normalized ELISA) [11]: 0.04
- binding signal (normalized ELISA) [12]: 0.26
- binding signal (normalized ELISA) [13]: 0.26
- binding signal (normalized ELISA) [14]: 0.23
- binding signal (normalized ELISA) [15]: 0.01
- binding signal (normalized ELISA) [16]: 0.2
- binding signal (normalized ELISA) [17]: 0.02
